Test results reported in US10925971B2, “Methods of treating PRLR positive breast cancer” (Regeneron Pharmaceuticals, Inc., priority 2016, dated 2021).

T1: human PRLR on HEK293/hPRLR cells (Homo sapiens, UniProt P16471)
T1 construct: HA; expressed in transfected cells; host or cells: HEK293
T1 sequence (P16471 25-622): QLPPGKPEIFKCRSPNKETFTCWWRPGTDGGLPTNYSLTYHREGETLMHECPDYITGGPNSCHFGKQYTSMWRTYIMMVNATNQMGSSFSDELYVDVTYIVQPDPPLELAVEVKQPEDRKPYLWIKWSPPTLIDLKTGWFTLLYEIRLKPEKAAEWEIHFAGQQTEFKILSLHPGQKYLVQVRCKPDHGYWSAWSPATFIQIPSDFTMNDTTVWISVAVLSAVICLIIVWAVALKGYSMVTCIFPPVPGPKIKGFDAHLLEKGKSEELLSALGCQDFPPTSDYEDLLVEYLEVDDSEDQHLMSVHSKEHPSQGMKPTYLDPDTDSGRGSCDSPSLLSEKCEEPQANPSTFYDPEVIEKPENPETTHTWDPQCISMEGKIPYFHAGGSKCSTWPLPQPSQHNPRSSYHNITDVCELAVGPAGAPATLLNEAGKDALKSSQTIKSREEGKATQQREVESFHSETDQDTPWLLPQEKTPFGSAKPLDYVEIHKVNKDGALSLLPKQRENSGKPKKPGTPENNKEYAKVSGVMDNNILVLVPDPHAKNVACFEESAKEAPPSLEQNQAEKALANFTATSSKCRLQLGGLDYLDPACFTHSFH

T2: monkey PRLR on HEK293/mfPRLR cells (Macaca fascicularis, UniProt A0A2K5WXK1)
T2 construct: HA; expressed in transfected cells; host or cells: HEK293
T2 sequence (A0A2K5WXK1 25-619): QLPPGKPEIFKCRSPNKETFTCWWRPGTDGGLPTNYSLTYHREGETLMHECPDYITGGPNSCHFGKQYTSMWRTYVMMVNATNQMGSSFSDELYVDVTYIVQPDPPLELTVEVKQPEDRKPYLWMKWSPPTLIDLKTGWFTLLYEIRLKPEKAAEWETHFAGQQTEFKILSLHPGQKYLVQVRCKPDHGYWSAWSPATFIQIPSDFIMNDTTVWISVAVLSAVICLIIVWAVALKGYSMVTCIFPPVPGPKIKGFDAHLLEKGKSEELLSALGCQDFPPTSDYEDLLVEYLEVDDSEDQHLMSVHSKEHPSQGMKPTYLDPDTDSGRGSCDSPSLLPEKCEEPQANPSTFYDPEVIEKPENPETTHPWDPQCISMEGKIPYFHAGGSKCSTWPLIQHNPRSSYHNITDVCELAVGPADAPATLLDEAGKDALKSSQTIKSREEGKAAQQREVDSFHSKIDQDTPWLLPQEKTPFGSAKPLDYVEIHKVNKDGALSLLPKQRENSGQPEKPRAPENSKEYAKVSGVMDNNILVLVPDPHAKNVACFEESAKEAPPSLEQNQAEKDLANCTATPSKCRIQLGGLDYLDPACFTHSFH

T3: mouse PRLR on HEK293/mPRLR cells (Mus musculus, UniProt Q08501)
T3 construct: HA; expressed in transfected cells; host or cells: HEK293
T3 sequence (Q08501 20-608): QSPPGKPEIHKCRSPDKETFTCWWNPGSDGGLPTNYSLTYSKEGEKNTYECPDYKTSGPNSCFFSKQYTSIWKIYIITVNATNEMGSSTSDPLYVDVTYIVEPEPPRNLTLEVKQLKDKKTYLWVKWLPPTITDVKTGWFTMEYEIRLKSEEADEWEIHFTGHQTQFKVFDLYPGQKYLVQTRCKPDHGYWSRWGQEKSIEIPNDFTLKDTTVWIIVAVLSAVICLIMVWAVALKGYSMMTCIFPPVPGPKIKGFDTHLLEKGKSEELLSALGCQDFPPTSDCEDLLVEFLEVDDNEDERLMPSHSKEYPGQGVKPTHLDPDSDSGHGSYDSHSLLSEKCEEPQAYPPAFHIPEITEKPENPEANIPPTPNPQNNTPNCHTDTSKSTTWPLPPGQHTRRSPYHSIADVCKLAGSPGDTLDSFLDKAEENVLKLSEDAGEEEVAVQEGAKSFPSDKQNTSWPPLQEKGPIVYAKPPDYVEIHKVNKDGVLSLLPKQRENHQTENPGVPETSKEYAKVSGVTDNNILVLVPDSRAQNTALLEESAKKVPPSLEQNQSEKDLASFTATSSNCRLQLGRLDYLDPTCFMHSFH

T4: native PRLR expressing T47D cells (Homo sapiens, UniProt P16471)
T4 construct: a native PRLR expressing cell line (T47D); endogenous in cells; host or cells: T47D
T4 sequence (P16471 25-622): T1 sequence (P16471 25-622)

B1: H1H6790P: fully human anti-PRLR antibody, human IgG1 Fc; HCVR/LCVR SEQ ID NOs 114/122 (antibody, V domains shown)
VH: EVQLVESGGGLVQPGGSLRLSCAASGFTFSSYAMTWVRQAPGKGLEWVSAITGSVGNTYYADSVKGRFTISRDNSKNTLYLQMNSLGAEDTAEYYCAKGAGMTTNWYLDLWGRGTLVTVSS
VL: DIVMTQSPDSLAVSLGARATINCKSSQSVLYSSNNQNYLTWYQQKPGQPPKLLIKWASTRESGVPDRFSGSGSGTDFTLTISSLQAEDVAVYYCQQYASSPYTFGQGTKLEIK
B2: H1H6792P: fully human anti-PRLR antibody, human IgG1 Fc; HCVR/LCVR SEQ ID NOs 130/138 (antibody, V domains shown)
VH: EVQLVESGGGLVQPGRSLRLSCAASGFTLDDHAVHWVRQAPGKGLEWVSGISWNSVYIDYADSVKGRFTIFRDNAKNSLYLQMNSLRAEDTAFYYCARDIEGARDYWGQGTLVTVSS
VL: DIQMTQSPSSLSASVGDRVTITCRASQGIRNDLGWYQQKPGKAPKRLIYAASSLQSGVPSRFSGSGYGTEFTLTISSLQPEDFAPYYCLQHNSYPLTFGGGTKVEIK
B3: H1H6793P: fully human anti-PRLR antibody, human IgG1 Fc; HCVR/LCVR SEQ ID NOs 146/154 (antibody, V domains shown)
VH: EVQLVESGGGLVQPGGSLRLSCAASGFSFSIYAMSWFRQAPGKGLEWVSAINGRGDGTHYADSVKGRFTISRDNSKTTLYLQMSSLRAEDTAVYYCAKPVMSTNGFDIWGQGTMVTVSS
VL: DIQMTQSPSTLSASVGDRVTITCRASQSISSWLAWYQLKPGKAPKLLIYKASNLESGVPSRFSGSGSGTEFTLTISSLQPDDFATYYCQQYNIYWTFGQGTKVEIK
B4: H1H6800P: fully human anti-PRLR antibody, human IgG1 Fc; HCVR/LCVR SEQ ID NOs 194/202 (antibody, V domains shown)
VH: EVQLVESGGGLVQPGRSLRLSCAASGFTFDGYAMHWVRQGPGKGLEWVSGISWYSDTLGYADSVKGRFTISRDNAKNSLYLQMNSLRTEDTAFYYCAKISSSGWAFDYWGQGTLVTVSS
VL: EIVLTQSPGTLSLSPGERATLSCRASHSVSSAYLAWYQQKPGQTPRLLIYGTSSRATGIPDRFSGSGSGTDFTLTISRLEPEDFAVYYCQQYGSSPLFTFGPGTKVDIK

Tests used:
[1] = system: Macaca fascicularis PRLR (mfPRLR.mmh; SEQ ID NO:403); assay: Surface plasmon resonance (Biacore T200), antibody-capture format; type: binding; conditions: analyte mfPRLR.mmh
Macaca fascicularis PRLR (mfPRLR.mmh; SEQ ID NO:403), sequence (as listed by the source): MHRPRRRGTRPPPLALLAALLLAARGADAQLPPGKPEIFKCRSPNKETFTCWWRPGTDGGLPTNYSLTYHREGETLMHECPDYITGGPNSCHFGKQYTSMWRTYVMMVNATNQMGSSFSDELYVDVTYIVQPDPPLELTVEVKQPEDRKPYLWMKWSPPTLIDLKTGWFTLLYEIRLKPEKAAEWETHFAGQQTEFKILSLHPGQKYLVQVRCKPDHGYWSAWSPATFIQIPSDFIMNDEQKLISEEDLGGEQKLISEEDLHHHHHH
Method in brief: (§1)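 Antibodies (human IgG1 Fc) captured on an anti-human Fc sensor surface; soluble monomeric (.mmh) or dimeric (.mFc) PRLR injected as analyte. ka and kd obtained by fitting to a 1:1 binding model.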

[2] = target: T5, dimeric human PRLR (hPRLR.mFc; SEQ ID NO:402) (Homo sapiens, UniProt P16471); assay: as above; type: binding; conditions: analyte hPRLR.mFc
T5 construct: dimeric (hPRLR.mFc)
T5 sequence (P16471 with tags, fused parts or gaps): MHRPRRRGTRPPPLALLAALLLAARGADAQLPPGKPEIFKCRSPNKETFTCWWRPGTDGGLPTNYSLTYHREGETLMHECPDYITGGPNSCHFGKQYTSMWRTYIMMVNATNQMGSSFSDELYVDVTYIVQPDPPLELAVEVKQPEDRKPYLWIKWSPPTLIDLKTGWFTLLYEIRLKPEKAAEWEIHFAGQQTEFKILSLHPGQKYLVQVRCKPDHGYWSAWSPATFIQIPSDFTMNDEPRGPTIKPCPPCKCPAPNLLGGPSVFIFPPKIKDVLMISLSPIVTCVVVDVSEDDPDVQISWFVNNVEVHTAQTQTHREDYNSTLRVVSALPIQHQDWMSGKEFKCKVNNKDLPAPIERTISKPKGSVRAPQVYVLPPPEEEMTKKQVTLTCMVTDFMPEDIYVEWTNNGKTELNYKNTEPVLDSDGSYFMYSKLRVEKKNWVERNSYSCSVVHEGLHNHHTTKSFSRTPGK
Method in brief: as §1

[3] = target: T6, monomeric human PRLR (hPRLR.mmh; SEQ ID NO:401) (Homo sapiens, UniProt P16471); assay: as above; type: binding; conditions: analyte hPRLR.mmh
T6 construct: soluble monomeric (hPRLR.mmh); mmh (myc-myc-hexahistidine) (C)
T6 sequence (P16471 with tags, fused parts or gaps): as the sequence (as listed by the source) above, with V105I, T139A, M154I, T187I, I236T counted along it
Method in brief: as §1

[4] = system: HEK293 parental cells; assay: FACS cell surface binding; parameters: species or system human
Method in brief: (§2)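 Flow cytometry: 1×10^5 cells/sample; primary Ab 10 μg/ml, 30 min on ice; 2 washes; PE anti-human 2° 10 μg/ml, 30 min on ice. Cells were HEK293 stably expressing HA-tagged PRLR of the given species, or untransfected HEK293. Readout was MFI fold over isotype.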

[5] = target: T1, human PRLR on HEK293/hPRLR cells; assay: FACS cell surface binding
Method in brief: as §2

[6] = target: T2, monkey PRLR on HEK293/mfPRLR cells; assay: FACS cell surface binding
Method in brief: as §2

[7] = target: T3, mouse PRLR on HEK293/mPRLR cells; assay: FACS cell surface binding
Method in brief: as §2

[8] = target: T4, native PRLR expressing T47D cells; assay: FACS cell surface binding
Method in brief: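 Binding expressed as mean fluorescence fold change above isotype background, measured by FACS after 30 min on ice with 10 μg/ml antibody and PE-conjugated anti-human detection. T47D, which natively expresses PRLR, tested with engineered HEK293/hPRLR and non-expressing HEK293 cells.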

Molecule	ka ([1]; 25° C.) [M/s]	kd ([1]; 25° C.) [s⁻¹]	ka ([1]; 37° C.) [M/s]	kd ([1]; 37° C.) [s⁻¹]	ka ([2]; 25° C.) [M/s]	kd ([2]; 25° C.) [s⁻¹]	ka ([2]; 37° C.) [M/s]	kd ([2]; 37° C.) [s⁻¹]	ka ([3]; 25° C.) [M/s]	kd ([3]; 25° C.) [s⁻¹]	ka ([3]; 37° C.) [M/s]	kd ([3]; 37° C.) [s⁻¹]	FACS Cell Binding [4] [Fold Above Background]	FACS Cell Binding [5] [Fold Above Background]	FACS Cell Binding [6] [Fold Above Background]	FACS Cell Binding [7] [Fold Above Background]	FACS Cell Binding [8] [Fold Above Background]
B1	389000	0.000793	615000	0.00321	542000	0.000104	646000	0.000198	565000	0.000799	940000	0.00329	1	37	24	1	34
B2	236000	0.000983	305000	0.00286	303000	9.48e-05	499000	0.000176	324000	0.000794	435000	0.00229	1	37	28	3	37
B3	177000	0.000393	233000	0.00107	229000	7.57e-05	410000	0.000142	235000	0.000332	339000	0.00102	2	2	32	2	43
B4	303000	0.00038	439000	0.00109	473000	8.69e-05	644000	0.000147	421000	0.000409	808000	0.00119	1	35	29	1	41
